# The supplement of paper PMC10126150
# ± gives the standard deviation of the averaged measurements.
# System: ATP
# Test: switch fluorescence ratio, 500 uM ATP over buffer (Cy3 cluster intensity, sum of 5 cycles each) (fold (ratio)); higher = stronger signal-on switching upon ATP binding; sequences stand for … in TCGTCGGCAGCGTCAGATGTGTATAAGAGACAGTTTTTTTTTTTTTTTTTTTTTTTTT…TC
# Details: aptamer strand: ATP DNA aptamer (quencher-CACCTGGGGGAGTATTGCGGAGGAAGG + anchor), 100 nM annealed; ATP concentration: 500 uM
# Procedure, shortened: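 Imaging in selection buffer was followed by imaging after 15 min with 500 uM ATP at 22 °C, for Cy3-labelled switching-strand clusters annealed to 100 nM quencher-labelled ATP aptamer on a modified Illumina MiSeq flow-cell. Five of these buffer/ATP cycles ran, separated by NaOH stripping and re-annealing. The fluorescence ratio per cluster is summed target-cycle over summed buffer-cycle Cy3 intensity, averaged per switch-domain sequence; clusters outside 100-1000 RFU were removed.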
# 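Also: ATP exposure 15 min at 22 °C before imaging.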
sequence,measurement,value
TGTAAGTATT,switch fluorescence ratio,1.02 ± 0.018
AGGGGAGGGT,switch fluorescence ratio,1 ± 0.015
TTTGACGCGC,switch fluorescence ratio,1.16 ± 0.13
TCCGGGGCAG,switch fluorescence ratio,1.262 ± 0.0072
GACGAAGATC,switch fluorescence ratio,1.11 ± 0.016
TACGTCTTAG,switch fluorescence ratio,0.972 ± 0.048
AATTAATTAA,switch fluorescence ratio,1.004 ± 0.01
GGCGGGGCTT,switch fluorescence ratio,0.968 ± 0.025
TGGGACGTTG,switch fluorescence ratio,0.995 ± 0.014
TGAAAGTGGA,switch fluorescence ratio,1.05 ± 0.034
GGGGCAGGTG,switch fluorescence ratio,1.27 ± 0.39
GTTTTTTTAT,switch fluorescence ratio,0.987 ± 0.02
ATACTTGGCT,switch fluorescence ratio,0.992 ± 0.02
AGTAGGCGAG,switch fluorescence ratio,0.996 ± 0.042
TGGTAGAGAT,switch fluorescence ratio,1.01 ± 0.051
TAATAGTAGT,switch fluorescence ratio,0.997 ± 0.022
CCGGGGGGGT,switch fluorescence ratio,1.09 ± 0.077
CAGTTATAAT,switch fluorescence ratio,1.04 ± 0.016
TCCCCCTGTT,switch fluorescence ratio,1.01 ± 0.013
TTTTGAGATA,switch fluorescence ratio,0.97489 ± 3.4e-05
GGAGTTCAGG,switch fluorescence ratio,0.9905 ± 0.0024
CCTTAAGACT,switch fluorescence ratio,1.07 ± 0.028
GATAGTGC,switch fluorescence ratio,1.06 ± 0.078
GCAGGGGAAG,switch fluorescence ratio,0.99 ± 0.019
CGGGGCGCGG,switch fluorescence ratio,0.977 ± 0.024
TTTTGATTCT,switch fluorescence ratio,1.01 ± 0.028
GAGGGAGGAG,switch fluorescence ratio,1 ± 0.029
TATGGATCTT,switch fluorescence ratio,0.983 ± 0.027
TGTGAAAATT,switch fluorescence ratio,1.01 ± 0.051
GGGGGAGGCC,switch fluorescence ratio,1.02 ± 0.056
TCGGGGCTGT,switch fluorescence ratio,0.993 ± 0.026
TGCTTGGGGC,switch fluorescence ratio,0.99 ± 0.059
GGGGCCCAGG,switch fluorescence ratio,1 ± 0.067
GAGGCTGTAT,switch fluorescence ratio,1 ± 0.011
TAATTCTTAG,switch fluorescence ratio,0.989 ± 0.02
TGGGTTTCAG,switch fluorescence ratio,0.996 ± 0.05
TTAGCTCATT,switch fluorescence ratio,1 ± 0.02
TGACTTGGAC,switch fluorescence ratio,1.02 ± 0.013
GCGGACACGC,switch fluorescence ratio,1.02 ± 0.014
AGCGCTTATG,switch fluorescence ratio,1 ± 0.022
TTTCTTAGAG,switch fluorescence ratio,0.992 ± 0.038
CGTGCCCGGT,switch fluorescence ratio,1.02 ± 0.022
GGTGTGAGGT,switch fluorescence ratio,0.9973 ± 0.0093
TTAGTAGCTA,switch fluorescence ratio,1.01 ± 0.013
TCAGTTGGGA,switch fluorescence ratio,0.9697 ± 0.0062
TTTTGAGGAC,switch fluorescence ratio,1.034 ± 0.0035
CCATATCGTG,switch fluorescence ratio,0.988 ± 0.026
CAGTGGACGG,switch fluorescence ratio,0.971 ± 0.042
TTGCAGGGGT,switch fluorescence ratio,1.14 ± 0.25
GGTCTAGAGA,switch fluorescence ratio,0.98 ± 0.033
TCCGACGGTT,switch fluorescence ratio,3.31 ± 0.46
TCTGCTTGGG,switch fluorescence ratio,1.09 ± 0.13
CATTTAAGAT,switch fluorescence ratio,0.997 ± 0.024
AGAGTTCCTG,switch fluorescence ratio,1.01 ± 0.028
ACGTAGTTTC,switch fluorescence ratio,1.05 ± 0.023
GATGGGTTTC,switch fluorescence ratio,0.987 ± 0.012
TGGGACTAGT,switch fluorescence ratio,1.02 ± 0.059
ATCTGGATGG,switch fluorescence ratio,0.996 ± 0.03
ATAAAACATG,switch fluorescence ratio,0.9785 ± 0.0055
GAGGTGGGGG,switch fluorescence ratio,0.993 ± 0.029
ATCGGGTAAG,switch fluorescence ratio,1.01 ± 0.024
TCGGGCTGGT,switch fluorescence ratio,0.977 ± 0.011
ATTAGGGCCA,switch fluorescence ratio,1.007 ± 0.0078
AAGCAGGCGG,switch fluorescence ratio,1.02 ± 0.021
TTCGTTGATG,switch fluorescence ratio,0.985 ± 0.016
TTGTGAAGGG,switch fluorescence ratio,0.9663 ± 0.0013
AGCTGAAGTG,switch fluorescence ratio,0.972 ± 0.018
CGAGAAATTT,switch fluorescence ratio,1.01 ± 0.022
AGTGTTTTAA,switch fluorescence ratio,0.994 ± 0.033
AGCAAAGAAT,switch fluorescence ratio,1.02 ± 0.042
AGGGTCTTTT,switch fluorescence ratio,1.03 ± 0.053
CCGGTGGGGA,switch fluorescence ratio,1.12 ± 0.064
ATCTCTGAAG,switch fluorescence ratio,0.995 ± 0.013
GCATGGGGTA,switch fluorescence ratio,1.05 ± 0.051
AGATTGAATT,switch fluorescence ratio,1.02 ± 0.062
ACGCTCCTGG,switch fluorescence ratio,1.15 ± 0.034
TATGGTCACC,switch fluorescence ratio,1.03 ± 0.03
ATGGTGGATT,switch fluorescence ratio,0.965 ± 0.025
TGTTACTCGT,switch fluorescence ratio,1.03 ± 0.0012
CCTCGCGGGA,switch fluorescence ratio,1.8 ± 0.028
TTGACTTGTT,switch fluorescence ratio,1.02 ± 0.068
AAGTACTTTA,switch fluorescence ratio,1.14 ± 0.013
AGATAGGTTG,switch fluorescence ratio,0.974 ± 0.038
CGCTGGGATT,switch fluorescence ratio,0.9913 ± 0.0057
CGTATGGTTA,switch fluorescence ratio,1.02 ± 0.038
AGTTGTACAA,switch fluorescence ratio,1.012 ± 0.01
GGGGTACCGG,switch fluorescence ratio,1.02 ± 0.032
ATTCCTTGGT,switch fluorescence ratio,1.03 ± 0.022
GGGTGTCGGT,switch fluorescence ratio,0.984 ± 0.024
ACTCCTGTAA,switch fluorescence ratio,1.13 ± 0.11
ATGGAATTTG,switch fluorescence ratio,0.98 ± 0.0098
TTTTTAAGGT,switch fluorescence ratio,1 ± 0.015
GAGAAAGGCT,switch fluorescence ratio,0.97 ± 0.019
CGCGAAGGGT,switch fluorescence ratio,1.01 ± 0.026
TAGCATAACC,switch fluorescence ratio,1.181 ± 0.0097
TGACAAAG,switch fluorescence ratio,0.9776 ± 0.0029
AGGATGGTTA,switch fluorescence ratio,0.968 ± 0.076
TGAGATATTG,switch fluorescence ratio,0.997 ± 0.018
TGGGTGTAT,switch fluorescence ratio,1.01 ± 0.023
CTGGATGGTG,switch fluorescence ratio,0.98 ± 0.051
ACGTCAAAAC,switch fluorescence ratio,2.91 ± 0.41
GATCTTAGGG,switch fluorescence ratio,0.989 ± 0.028
GCATTACCGG,switch fluorescence ratio,1.03 ± 0.04
AAAAATCGAG,switch fluorescence ratio,1.0015 ± 0.00019
ACACGGGGGC,switch fluorescence ratio,1 ± 0.059
GGAAAATGGG,switch fluorescence ratio,1.02 ± 0.065
TAATAGGCTT,switch fluorescence ratio,1.01 ± 0.027
AGGCTGGGGG,switch fluorescence ratio,0.996 ± 0.013
CGTTAAGTGG,switch fluorescence ratio,0.973 ± 0.04
TTACCAAAAC,switch fluorescence ratio,1.41 ± 0.54
CGTAATAGTC,switch fluorescence ratio,1.81 ± 0.15
TATTTTTAGT,switch fluorescence ratio,1 ± 0.027
AATATGTATC,switch fluorescence ratio,1.003 ± 0.0029
CTTTGCACGA,switch fluorescence ratio,1.1 ± 0.0077
TATGTTACGG,switch fluorescence ratio,1.03 ± 0.0075
GGGGTGCACG,switch fluorescence ratio,0.988 ± 0.051
GATGCCGTAG,switch fluorescence ratio,0.9997 ± 0.0036
CAATTTGTGG,switch fluorescence ratio,0.968 ± 0.021
TAGAGAGGCG,switch fluorescence ratio,0.9981 ± 0.0084
GCGTTCCGTA,switch fluorescence ratio,1.02 ± 0.039
GATGATCTAT,switch fluorescence ratio,1.01 ± 0.035
GTTGTAAAGT,switch fluorescence ratio,1.03 ± 0.036
GCAGGGGCTC,switch fluorescence ratio,1 ± 0.027
ATATGTATCA,switch fluorescence ratio,1.06 ± 0.033
AATTATTGGC,switch fluorescence ratio,1.02 ± 0.061
CAAAAGGGGT,switch fluorescence ratio,1.004 ± 0.0063
GTTAATTATT,switch fluorescence ratio,1.06 ± 0.085
TTAGGGATTG,switch fluorescence ratio,1 ± 0.03
TAAAAGGGAA,switch fluorescence ratio,1.01 ± 0.024
AGGCAGCTGT,switch fluorescence ratio,1.01 ± 0.018
AATACGTGGA,switch fluorescence ratio,1.029 ± 0.0036
ATAAATTTTC,switch fluorescence ratio,0.951 ± 0.043
AAAAATGCTT,switch fluorescence ratio,1.02 ± 0.066
GGGGATTATG,switch fluorescence ratio,0.997 ± 0.046
AGGTAGGGTA,switch fluorescence ratio,0.992 ± 0.031
GGTAGATGCG,switch fluorescence ratio,1.03 ± 0.04
CGGGGTAGTT,switch fluorescence ratio,1.01 ± 0.004
TCGTTCTGAA,switch fluorescence ratio,0.974 ± 0.022
GGCCGATTTT,switch fluorescence ratio,0.9813 ± 0.0042
CTAGGGGTTC,switch fluorescence ratio,1.01 ± 0.046
GTCCATAGGT,switch fluorescence ratio,1.02 ± 0.013
TAGGGCGGGT,switch fluorescence ratio,0.972 ± 0.039
GGGATTTTCC,switch fluorescence ratio,0.979 ± 0.044
TTGTGGGAAA,switch fluorescence ratio,1.02 ± 0.016
TCATGCAACG,switch fluorescence ratio,1.06 ± 0.06
GATCGATTG,switch fluorescence ratio,1.05 ± 0.051
AAATAATGAT,switch fluorescence ratio,1 ± 0.021
ACGATTATTC,switch fluorescence ratio,1.07 ± 0.039
GGGATTAAGA,switch fluorescence ratio,0.98 ± 0.026
CGGGGTCAGT,switch fluorescence ratio,1.02 ± 0.014
CGTCGGTAAG,switch fluorescence ratio,1.04 ± 0.027
CGGCGGGAGT,switch fluorescence ratio,1.019 ± 0.0073
AAGTGGGGTC,switch fluorescence ratio,0.948 ± 0.037
